96 substances from the Human Domainome abundance scans (Beltran et al. 2025) can be followed below.

± gives the uncertainty stated by the source.

A short description of this series: abundance fitness (aPCA) (normalised: wild type 0, dead -1); higher = more abundant; growth selection in yeast, the domain comes from the species named. As to conditions: Homo sapiens.
The substance “Scaffold attachment factor B1 G52K, Q15424” displayed an abundance fitness of -1.35 ± 0.18.

As for “Scaffold attachment factor B1 G52L, Q15424”, the abundance fitness was -1.34 ± 0.086.

For the substance “Scaffold attachment factor B1 G52M, Q15424”, the abundance fitness is -1.21 ± 0.077.

“Scaffold attachment factor B1 G52N, Q15424” showed an abundance fitness of -1.45 ± 0.23.

“Scaffold attachment factor B1 G52P, Q15424” came in with an abundance fitness of -0.916 ± 0.079.

“Scaffold attachment factor B1 G52Q, Q15424”: the abundance fitness is -0.781 ± 0.066.

“Scaffold attachment factor B1 G52R, Q15424” showed an abundance fitness of -1.18 ± 0.054.

The substance “Scaffold attachment factor B1 G52S, Q15424” had an abundance fitness of -0.786 ± 0.057.

As for “Scaffold attachment factor B1 G52T, Q15424”, the abundance fitness was -0.939 ± 0.078.

In turn, “Scaffold attachment factor B1 G52V, Q15424” gave an abundance fitness of -0.978 ± 0.059.

“Scaffold attachment factor B1 G52W, Q15424” yielded an abundance fitness of -1.2 ± 0.073.

In turn, “Scaffold attachment factor B1 G52Y, Q15424” showed an abundance fitness of -1.15 ± 0.11.

Regarding “Scaffold attachment factor B1 G69C, Q15424”, the abundance fitness is -0.431 ± 0.093.

In the case of “Scaffold attachment factor B1 G69D, Q15424”, the abundance fitness was -0.422 ± 0.17.

For the substance “Scaffold attachment factor B1 G69E, Q15424”, the abundance fitness was -0.552 ± 0.086.

Substance “Scaffold attachment factor B1 G69H, Q15424” showed an abundance fitness of -0.292 ± 0.11.

Substance “Scaffold attachment factor B1 G69I, Q15424” came in with an abundance fitness of -0.376 ± 0.084.

In the case of “Scaffold attachment factor B1 G69L, Q15424”, the abundance fitness is -0.558 ± 0.049.

As for “Scaffold attachment factor B1 G69M, Q15424”, the abundance fitness is -0.463 ± 0.096.

“Scaffold attachment factor B1 G69N, Q15424” showed an abundance fitness of -0.248 ± 0.099.

Take “Scaffold attachment factor B1 G69P, Q15424”: the abundance fitness is -0.419 ± 0.083.

In turn, “Scaffold attachment factor B1 G69R, Q15424” showed an abundance fitness of -0.25 ± 0.06.

In the case of “Scaffold attachment factor B1 G69S, Q15424”, the abundance fitness is -0.397 ± 0.071.

With “Scaffold attachment factor B1 G69T, Q15424”, the abundance fitness is -0.472 ± 0.077.

Regarding “Scaffold attachment factor B1 G69V, Q15424”, the abundance fitness is -0.454 ± 0.079.

Substance “Scaffold attachment factor B1 G69W, Q15424” showed an abundance fitness of -0.658 ± 0.067.

Consider “Scaffold attachment factor B1 G69Y, Q15424”, for which the abundance fitness was -0.819 ± 0.19.

The substance “Scaffold attachment factor B1 G70A, Q15424” came in with an abundance fitness of -0.278 ± 0.061.

“Scaffold attachment factor B1 G70C, Q15424” yielded an abundance fitness of -0.259 ± 0.058.

Take “Scaffold attachment factor B1 G70D, Q15424”: the abundance fitness is -0.354 ± 0.097.

In turn, “Scaffold attachment factor B1 G70E, Q15424” gave an abundance fitness of -0.244 ± 0.072.

“Scaffold attachment factor B1 G70F, Q15424”: the abundance fitness is -0.406 ± 0.083.

In turn, “Scaffold attachment factor B1 G70H, Q15424” registered an abundance fitness of -0.467 ± 0.083.

Substance “Scaffold attachment factor B1 G70K, Q15424” registered an abundance fitness of -0.207 ± 0.081.

For the substance “Scaffold attachment factor B1 G70L, Q15424”, the abundance fitness was -0.22 ± 0.051.

For “Scaffold attachment factor B1 G70M, Q15424”, the abundance fitness is -0.307 ± 0.064.

Regarding “Scaffold attachment factor B1 G70N, Q15424”, the abundance fitness was -0.511 ± 0.13.

In the case of “Scaffold attachment factor B1 G70Q, Q15424”, the abundance fitness is -0.205 ± 0.068.

In the case of “Scaffold attachment factor B1 G70R, Q15424”, the abundance fitness was -0.196 ± 0.053.

Substance “Scaffold attachment factor B1 G70S, Q15424” showed an abundance fitness of -0.197 ± 0.057.

Turning to “Scaffold attachment factor B1 G70T, Q15424”, the abundance fitness was -0.408 ± 0.092.

On to “Scaffold attachment factor B1 G70W, Q15424”, for which the abundance fitness was -0.474 ± 0.055.

Turning to “Scaffold attachment factor B1 G70Y, Q15424”, the abundance fitness was -0.483 ± 0.1.

Consider “Scaffold attachment factor B1 I37C, Q15424”, for which the abundance fitness is -0.281 ± 0.072.

On to “Scaffold attachment factor B1 I37D, Q15424”, for which the abundance fitness is -0.175 ± 0.075.

Regarding “Scaffold attachment factor B1 I37G, Q15424”, the abundance fitness is -0.028 ± 0.05.

Turning to “Scaffold attachment factor B1 I37H, Q15424”, the abundance fitness is -0.186 ± 0.085.

The substance “Scaffold attachment factor B1 I37K, Q15424” returned an abundance fitness of -0.103 ± 0.076.

On to “Scaffold attachment factor B1 I37L, Q15424”, for which the abundance fitness was -0.124 ± 0.056.

“Scaffold attachment factor B1 I37M, Q15424” yielded an abundance fitness of -0.057 ± 0.061.

“Scaffold attachment factor B1 I37N, Q15424” had an abundance fitness of -0.25 ± 0.078.

“Scaffold attachment factor B1 I37R, Q15424” had an abundance fitness of -0.04 ± 0.054.

The substance “Scaffold attachment factor B1 I37S, Q15424” yielded an abundance fitness of -0.17 ± 0.054.

“Scaffold attachment factor B1 I37V, Q15424” returned an abundance fitness of -0.15 ± 0.06.

Turning to “Scaffold attachment factor B1 I37Y, Q15424”, the abundance fitness is -0.231 ± 0.059.

The substance “Scaffold attachment factor B1 I65A, Q15424” had an abundance fitness of -0.596 ± 0.069.

“Scaffold attachment factor B1 I65C, Q15424” had an abundance fitness of -0.141 ± 0.087.

Regarding “Scaffold attachment factor B1 I65D, Q15424”, the abundance fitness is -0.706 ± 0.077.

“Scaffold attachment factor B1 I65E, Q15424”: the abundance fitness is -0.497 ± 0.085.

“Scaffold attachment factor B1 I65F, Q15424”: the abundance fitness is -0.466 ± 0.099.

Consider “Scaffold attachment factor B1 I65G, Q15424”, for which the abundance fitness was -0.564 ± 0.057.

The substance “Scaffold attachment factor B1 I65H, Q15424” gave an abundance fitness of -0.917 ± 0.14.

As for “Scaffold attachment factor B1 I65K, Q15424”, the abundance fitness was -0.434 ± 0.061.

In turn, “Scaffold attachment factor B1 I65L, Q15424” returned an abundance fitness of -0.143 ± 0.049.

For “Scaffold attachment factor B1 I65M, Q15424”, the abundance fitness is -0.312 ± 0.069.

“Scaffold attachment factor B1 I65N, Q15424”: the abundance fitness was -0.598 ± 0.089.

As for “Scaffold attachment factor B1 I65P, Q15424”, the abundance fitness was -0.559 ± 0.051.

Consider “Scaffold attachment factor B1 I65R, Q15424”, for which the abundance fitness was -0.287 ± 0.045.

As to “Scaffold attachment factor B1 I65S, Q15424”, the abundance fitness was -0.577 ± 0.058.

Turning to “Scaffold attachment factor B1 I65W, Q15424”, the abundance fitness is -0.457 ± 0.051.

The substance “Scaffold attachment factor B1 I65Y, Q15424” registered an abundance fitness of -0.535 ± 0.14.

Substance “Scaffold attachment factor B1 I75A, Q15424” gave an abundance fitness of -0.304 ± 0.071.

In the case of “Scaffold attachment factor B1 I75C, Q15424”, the abundance fitness is -0.28 ± 0.086.

With “Scaffold attachment factor B1 I75D, Q15424”, the abundance fitness was -0.449 ± 0.11.

Turning to “Scaffold attachment factor B1 I75E, Q15424”, the abundance fitness was -0.459 ± 0.09.

As for “Scaffold attachment factor B1 I75F, Q15424”, the abundance fitness was -0.371 ± 0.095.

“Scaffold attachment factor B1 I75G, Q15424” came in with an abundance fitness of -0.264 ± 0.057.

In turn, “Scaffold attachment factor B1 I75H, Q15424” gave an abundance fitness of -0.543 ± 0.13.

Take “Scaffold attachment factor B1 I75K, Q15424”: the abundance fitness is -0.253 ± 0.06.

The substance “Scaffold attachment factor B1 I75L, Q15424” had an abundance fitness of -0.099 ± 0.054.

“Scaffold attachment factor B1 I75M, Q15424” returned an abundance fitness of -0.19 ± 0.065.

As for “Scaffold attachment factor B1 I75N, Q15424”, the abundance fitness was -0.219 ± 0.058.

For “Scaffold attachment factor B1 I75P, Q15424”, the abundance fitness is -0.31 ± 0.084.

Substance “Scaffold attachment factor B1 I75Q, Q15424” had an abundance fitness of -0.311 ± 0.071.

In the case of “Scaffold attachment factor B1 I75R, Q15424”, the abundance fitness is -0.285 ± 0.057.

As for “Scaffold attachment factor B1 I75S, Q15424”, the abundance fitness is -0.257 ± 0.056.

The substance “Scaffold attachment factor B1 I75T, Q15424” displayed an abundance fitness of -0.194 ± 0.064.

As to “Scaffold attachment factor B1 I75V, Q15424”, the abundance fitness was -0.113 ± 0.049.

In turn, “Scaffold attachment factor B1 I77A, Q15424” displayed an abundance fitness of -0.157 ± 0.062.

Substance “Scaffold attachment factor B1 I77C, Q15424” showed an abundance fitness of -0.187 ± 0.061.

On to “Scaffold attachment factor B1 I77D, Q15424”, for which the abundance fitness was -0.212 ± 0.071.

Substance “Scaffold attachment factor B1 I77E, Q15424” returned an abundance fitness of -0.102 ± 0.092.

“Scaffold attachment factor B1 I77F, Q15424” came in with an abundance fitness of -0.076 ± 0.058.

Turning to “Scaffold attachment factor B1 I77G, Q15424”, the abundance fitness is -0.195 ± 0.064.

With “Scaffold attachment factor B1 I77H, Q15424”, the abundance fitness was -0.163 ± 0.056.

“Scaffold attachment factor B1 I77K, Q15424” yielded an abundance fitness of -0.136 ± 0.073.
